Assay results published in patent US7871610B2, “Antibodies to Tie1 ectodomain” (Dyax Corp., priority 2003, dated 2011).
“Also recorded” adds a separate entry of the source.

Legend:
[1] = system: human platelets; experiment: Flow cytometry binding to human platelets; conditions: non-activated human platelets, 2 and 10 μg/ml
Protocol: To avoid platelet activation, human platelets were isolated from plasma of healthy donors using the platelet GelSep kit (Biocytex, Marseille, France) kit according to the guidelines of the manufacturer. Platelets were activated by the addition of thrombin to a final concentration of 0.8 U/ml. To distinguish activated from non-activated platelets double staining was performed with Tie-1 antibodies/control antibodies and antibody CD42 (total platelets) or CD62 (activated platelets).
After preparation, platelets were resuspended in buffer 2 of the GelSep kit, 10% heat inactivated human serum (incubation buffer) and incubated for 1 hour. […] Platelets were spun down by centrifugation for 10 min at 611 g. Between incubations platelets were washed twice with Buffer 1 of the GelSep kit. Then, Strepatvidin-R-phycoerythrin together with anti-CD42-PercP or anti-CD62-PercP were incubated for 30 minutes at room temperature in incubation buffer After the last incubation and washing detection of bound antibodies was performed by means of flow cytometry on a FACSscan and Epics Altra (Becton Dickinson, Oxnard, Coulter) and results analyzed. Cells were gated on SSC and anti-CD42-PercP for the total platelets in case non-activated platelets were used and on SSC and anti-CD62-PercP for the activated platelets.

[2] = target: T1, Mouse Tie 1-Fc (Mus musculus, UniProt Q06806); experiment: BIAcore, E3 Fabs on mouse Tie1-Fc; type: binding; conditions: Fab, mouse Tie1-Fc
T1 sequence (Q06806 23-755 limits assumed): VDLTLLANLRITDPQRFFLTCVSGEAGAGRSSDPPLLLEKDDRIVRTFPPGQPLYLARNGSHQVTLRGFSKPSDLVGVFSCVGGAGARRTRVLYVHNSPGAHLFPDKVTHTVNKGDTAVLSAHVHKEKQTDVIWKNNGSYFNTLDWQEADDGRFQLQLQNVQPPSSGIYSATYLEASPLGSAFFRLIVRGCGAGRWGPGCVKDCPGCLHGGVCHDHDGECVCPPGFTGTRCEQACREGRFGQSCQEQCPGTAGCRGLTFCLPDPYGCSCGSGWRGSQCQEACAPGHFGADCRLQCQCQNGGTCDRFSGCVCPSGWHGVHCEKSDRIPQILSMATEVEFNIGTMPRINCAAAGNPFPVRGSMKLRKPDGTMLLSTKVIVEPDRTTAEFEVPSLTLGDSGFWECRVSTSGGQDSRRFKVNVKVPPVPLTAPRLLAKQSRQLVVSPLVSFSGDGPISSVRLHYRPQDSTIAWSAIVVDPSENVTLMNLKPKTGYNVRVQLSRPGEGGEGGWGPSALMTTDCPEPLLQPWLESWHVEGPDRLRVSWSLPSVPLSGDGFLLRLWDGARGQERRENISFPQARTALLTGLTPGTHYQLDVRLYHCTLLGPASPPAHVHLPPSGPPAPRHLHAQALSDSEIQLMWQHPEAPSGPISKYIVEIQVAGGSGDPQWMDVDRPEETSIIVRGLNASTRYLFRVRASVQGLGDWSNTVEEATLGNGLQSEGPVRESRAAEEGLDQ
Protocol: Mouse Tie 1-Fc antigen (0.5 mg/ml stock) was biotinylated using established procedures and after dilution 1/100 fold in HBS this was then used for capturing to a streptavidin chip. This was coated to a resonance value of 740RU. All analysis was performed in HBS buffer. The parental Fab E3 0.587 mg/ml (11740 nM) was diluted 1/587 in HBS+BSA to obtain a stock of 20 nM and the germlined Fab E3 0.025 mg/ml (500 nM) was diluted 1/25 in HBS+BSA to obtain a stock of 20 nM. Serial dilutions were made of each Fab preparation to obtain 10 nM, 5 nM, 2.5 nM, and 1.25 nM. For the association phase samples were injected at 30 μl/min for 4 minutes using kinject program. This was followed by a 10 minutes dissociation phase, any remaining sample was stripped from the Tie-1 Fc surface at a flow of 50 μl/min with a single injection of 50 mM NaOH+1 M NaCl for 18 seconds. All samples were run and analyzed in duplicate.
Sensorgrams were analyzed using the simultaneous ka/kd fitting program with 1:1 model in the BIAEVALUATION™ software 3.1.

B1: E3: human anti-Tie1 antibody from Fab phage library; HC SEQ ID NO:114, LC SEQ ID NO:116 (antibody, V domains shown)
VH: EVQLLESGGGLVQPGGSLRLSCAASGFTFSMYGMVWVRQAPGKGLEWVSVISPSGGNTGYADSVKGRFTISRDNSKNTLYLQVNSLRAEDTAVYYCARAPRGYSYGYYYWGQGTLVTVSSASTKGPSVFPLAPSSKSTSGG
VL: DIQMTQSPLSLSASVGDRVTITCRASQGIGHYLAWYQQKPGKVPKLLIYTASTLQSGVPSRFSGSGSGTDFTLTINSLQPEDVATYYCQQFNSYPHTFGQGTRLDIK
modifications: Synthetically generated peptide
- binding to total platelets (CD42) [1]: Only a background number; also recorded: no significant binding to total platelets
- effect of germlining on binding activity [2]: minimal effect on the binding activity
